# Experimental data reported in publication doi:10.1101/2023.06.06.543969 (bioRxiv, 2023).
# T1: biotinylated αTSR domain of P. falciparum circumsporozoite protein (Plasmodium falciparum 3D7 (by PDB 7RXI))
# T1 construct: also called P. falciparum CSP; C-terminal αTSR domain of P. falciparum circumsporozoite protein
# T1 chain: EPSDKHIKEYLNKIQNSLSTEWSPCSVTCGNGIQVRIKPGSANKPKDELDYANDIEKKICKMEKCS
# Assays:
# Assay in all cases: BLI
# Settings in all cases: both partners purified
# [1] = target: T2, His6-tagged SARS-CoV-2 receptor-binding domain (SARS-CoV-2, UniProt P0DTC2)
# T2 construct: source: High Five cells, purified (Ni-NTA, size exclusion)
# [2] = target: influenza hemagglutinin (HA) from H1N1 A/California/07/2009 (Influenza A virus H1N1 …, UniProt C3W5X2, biotinylated)
# [3] = target: T1, biotinylated αTSR domain of P. …
binder,measurement,setting,value
"GAR12 Fab VL D50K (Fab, V domains shown, also called GAR12 VL D50K; source: ExpiCHO, transiently co-transfected, purified (CaptureSelect CH1-XL)) VH: EVQLVQSGGGLVQPGGSLRLSCAASGFTFSSYAMSWVRQAPGKGLEWVLSISGSGGSTYYADSVKGRFTISIDNSKKTVYLQMNSLRAEDTAVYYCAKSGEQQLVQAEYFHHWGQGTLVTVSS VL: DIQMTQSPSTLSASVGDRVTITCRASQSIGRWLAWYQQKPGKAPKLLIYKASSLESGVPSRFSGSGFGTEFTLTISSLQPDDFATYYCQQCDSLLTFGGGTKLEIK",fold change in KD against the wild type,[1],44 fold
"5J8 Fab (WT) (Fab, V domains shown, also called IGLV3–21 antibody 5J8; source: ExpiCHO, transiently co-transfected, purified (CaptureSelect CH1-XL)) VH: EVQLVESGPGLVKPSDILSLTCAVSGYSISSNYYWGWIRQPPGKGLEWIGSIYHSGSTYYKPSLESRLGISVDTSKNQFSLKLSFVSAADTAVYYCARHVRSGYPDTAYYFDKWGQGTLVTVSS VL: SYVLTQPPSVSVAPGETARISCGGNNIGTKVLHWYQQTPGQAPVLVVYDDSDRPSGIPERFSGSNSGNTATLTISRVEVGDEADYYCQVWDISTDQAVFGGGTKLTVL",binding result,[2],binds
"Fab234 (WT) (Fab, V domains shown) VH: EVQLVESGGGLVKPGGSLRLSCAASGFNFSTHIMNWVRQAPGKGLEWVSSISSSGTYIYYADSMKGRFTISRDNPKNSLYLQMNSLRAEDTAVYYCARARGFIQFHYYMDVWGKGTTVAVSS VL: SYVLTQPPSVSVAPGKTARITCGGNNIGSKSVHWHQQRPGQAPVLVVYDDKIRPSGIPERFSGSNSGNTATLIISRVEAGDEADYYCQVWHSSSDPVVFGGGTKLTVL",binding result,[3],binds
